# Results reported in patent publication US20230086069A1.
# B1: SI-63C2 (recombinant mAb with H1 humanized anti-CD19 variable sequence) (antibody, V domains shown)
# VH: QVTLKESGPGLVQPGQTLRLTCAFSGFSLSTSGMGVGWIRQPPGKGLEWLAHIWWDDDKRYNPALKSRLTISKDTSKNQVYLQMNSLDAEDTAVYYCARMELWSYYFDYWGQGTLVTVSS
# VL: ENVLTQSPASLSASPGERVTITCSASSSVSYMHWYQQKPGQAPKLWIYDTSKLASGVPSRFSGSGSGNDHTLTISSMEPEDFATYYCFQGSVYPFTFGQGTKLEIKR
# Molecular target: cynomolgus CD19 (cynomolgus)
# Assay: BLI (Octet); cynomolgus CD19
binder,measurement,value
B1,Kd,3.6 nM
